Where no end group is shown, it is not given here. The star is where a group is joined. For = O=C*
T1: FLAG-tagged human FPR1 (Hs_FPR1) (human, UniProt P21462 1-350)
T1 sequence (looked up): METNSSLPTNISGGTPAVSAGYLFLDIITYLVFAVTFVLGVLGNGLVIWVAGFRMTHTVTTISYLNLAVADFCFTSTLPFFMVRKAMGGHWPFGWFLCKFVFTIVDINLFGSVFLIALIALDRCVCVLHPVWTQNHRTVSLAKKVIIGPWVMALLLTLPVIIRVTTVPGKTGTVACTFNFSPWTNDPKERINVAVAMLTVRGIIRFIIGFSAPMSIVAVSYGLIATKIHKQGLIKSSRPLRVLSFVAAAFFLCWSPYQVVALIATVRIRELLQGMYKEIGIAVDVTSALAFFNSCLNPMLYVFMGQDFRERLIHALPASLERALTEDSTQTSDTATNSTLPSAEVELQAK

T2: FLAG-tagged human FPR2 (Hs_FPR2) (human, UniProt P25090 1-351)
T2 sequence (looked up): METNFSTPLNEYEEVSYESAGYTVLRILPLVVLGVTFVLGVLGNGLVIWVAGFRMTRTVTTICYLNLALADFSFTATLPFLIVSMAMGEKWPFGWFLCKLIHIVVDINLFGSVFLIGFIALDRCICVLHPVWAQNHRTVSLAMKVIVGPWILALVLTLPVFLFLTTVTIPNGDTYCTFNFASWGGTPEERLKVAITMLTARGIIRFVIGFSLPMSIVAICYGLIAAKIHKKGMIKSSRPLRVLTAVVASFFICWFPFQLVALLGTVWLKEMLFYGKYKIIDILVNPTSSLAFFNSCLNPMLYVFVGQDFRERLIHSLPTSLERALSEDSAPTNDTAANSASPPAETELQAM

T3: FLAG-tagged mouse Fpr1 (Mm_Fpr1) (mouse, UniProt P33766 1-364)
T3 sequence (looked up): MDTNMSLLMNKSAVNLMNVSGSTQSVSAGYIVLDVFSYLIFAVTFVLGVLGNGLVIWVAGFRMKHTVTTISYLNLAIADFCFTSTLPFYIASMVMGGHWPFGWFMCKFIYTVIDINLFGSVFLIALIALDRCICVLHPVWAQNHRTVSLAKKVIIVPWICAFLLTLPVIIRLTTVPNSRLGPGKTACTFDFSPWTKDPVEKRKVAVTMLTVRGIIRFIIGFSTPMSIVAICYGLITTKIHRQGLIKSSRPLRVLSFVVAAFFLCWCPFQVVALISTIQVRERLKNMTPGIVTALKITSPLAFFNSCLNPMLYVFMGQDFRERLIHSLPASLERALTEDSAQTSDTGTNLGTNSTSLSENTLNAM

T4: FLAG-tagged mouse Fpr2 (Mm_Fpr2) (mouse, UniProt O88536 1-351)
T4 sequence (looked up): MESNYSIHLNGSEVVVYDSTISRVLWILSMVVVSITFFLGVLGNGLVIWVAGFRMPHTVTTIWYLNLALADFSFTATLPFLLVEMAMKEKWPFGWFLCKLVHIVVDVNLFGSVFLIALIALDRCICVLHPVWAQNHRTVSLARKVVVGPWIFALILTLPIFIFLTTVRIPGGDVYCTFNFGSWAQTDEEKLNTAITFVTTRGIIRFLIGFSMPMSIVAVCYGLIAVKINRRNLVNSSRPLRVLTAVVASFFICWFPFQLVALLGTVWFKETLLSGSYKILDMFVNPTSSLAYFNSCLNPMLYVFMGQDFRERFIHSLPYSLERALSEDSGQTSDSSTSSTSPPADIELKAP

T5: FLAG-Hs_FPR1 C-terminally fused to Renilla Luciferase 8 (human, UniProt P21462 1-350)
T5 sequence (looked up): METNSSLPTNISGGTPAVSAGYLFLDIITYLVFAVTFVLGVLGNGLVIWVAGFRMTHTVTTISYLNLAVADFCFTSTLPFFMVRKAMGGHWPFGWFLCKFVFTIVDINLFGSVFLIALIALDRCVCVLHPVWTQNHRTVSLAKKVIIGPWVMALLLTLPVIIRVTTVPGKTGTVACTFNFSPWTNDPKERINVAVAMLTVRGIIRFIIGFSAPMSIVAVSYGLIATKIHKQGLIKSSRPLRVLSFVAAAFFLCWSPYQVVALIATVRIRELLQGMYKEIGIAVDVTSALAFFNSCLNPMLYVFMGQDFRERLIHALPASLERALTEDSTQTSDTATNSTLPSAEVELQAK

T6: FLAG-Mm_Fpr1 C-terminally fused to Renilla Luciferase 8 (mouse, UniProt P33766 1-364)
T6 sequence (looked up): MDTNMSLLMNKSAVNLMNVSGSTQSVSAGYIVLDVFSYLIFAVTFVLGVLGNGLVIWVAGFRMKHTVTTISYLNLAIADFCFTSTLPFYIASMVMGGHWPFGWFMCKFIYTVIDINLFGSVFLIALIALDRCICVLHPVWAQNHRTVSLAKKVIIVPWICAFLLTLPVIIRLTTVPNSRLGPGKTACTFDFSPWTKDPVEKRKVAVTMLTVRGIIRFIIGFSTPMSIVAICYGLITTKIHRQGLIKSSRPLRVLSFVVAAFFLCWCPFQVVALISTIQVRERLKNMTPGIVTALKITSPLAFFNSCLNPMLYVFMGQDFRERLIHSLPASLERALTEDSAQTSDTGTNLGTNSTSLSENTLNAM

T7: FLAG-Hs_FPR2 C-terminally fused to Renilla Luciferase 8 (human, UniProt P25090 1-351)
T7 sequence (looked up): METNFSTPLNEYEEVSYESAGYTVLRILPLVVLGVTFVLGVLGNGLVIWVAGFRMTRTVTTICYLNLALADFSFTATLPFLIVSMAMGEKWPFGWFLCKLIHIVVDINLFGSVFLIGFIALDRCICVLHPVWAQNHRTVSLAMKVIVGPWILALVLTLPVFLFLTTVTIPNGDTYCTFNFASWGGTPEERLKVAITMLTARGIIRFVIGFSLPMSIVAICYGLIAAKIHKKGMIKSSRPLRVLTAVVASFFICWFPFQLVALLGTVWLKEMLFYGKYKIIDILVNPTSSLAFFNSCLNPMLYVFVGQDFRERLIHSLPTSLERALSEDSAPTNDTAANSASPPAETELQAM

T8: FLAG-Mm_Fpr2 C-terminally fused to Renilla Luciferase 8 (mouse, UniProt O88536 1-351)
T8 sequence (looked up): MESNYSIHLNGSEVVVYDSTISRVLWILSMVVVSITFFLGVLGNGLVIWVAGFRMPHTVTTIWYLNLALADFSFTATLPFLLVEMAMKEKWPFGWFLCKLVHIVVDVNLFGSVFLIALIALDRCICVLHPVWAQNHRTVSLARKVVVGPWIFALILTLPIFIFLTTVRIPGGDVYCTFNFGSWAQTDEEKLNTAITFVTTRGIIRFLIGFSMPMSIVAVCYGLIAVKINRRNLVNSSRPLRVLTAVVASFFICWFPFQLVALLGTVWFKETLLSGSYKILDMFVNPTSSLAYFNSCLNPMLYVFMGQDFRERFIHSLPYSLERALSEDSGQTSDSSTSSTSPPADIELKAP


Tests used:
[1] = molecular target: T1, FLAG-tagged human FPR1 (Hs_FPR1)
[2] = molecular target: T2, FLAG-tagged human FPR2 (Hs_FPR2)
[3] = molecular target: T3, FLAG-tagged mouse Fpr1 (Mm_Fpr1)
[4] = molecular target: T4, FLAG-tagged mouse Fpr2 (Mm_Fpr2)
[5] = molecular target: T1, FLAG-tagged human FPR1 (Hs_FPR1); remark: listed apart in the source
[6] = molecular target: T2, FLAG-tagged human FPR2 (Hs_FPR2); remark: listed apart in the source
[7] = molecular target: T3, FLAG-tagged mouse Fpr1 (Mm_Fpr1); remark: listed apart in the source
[8] = molecular target: T1, FLAG-tagged human FPR1 (Hs_FPR1); assay: flow cytometry on cells; competition binding: HEK293 cells stably expressing the receptor, lifted in PBS, on ice 90 min with 10 nM K(5/6-FAM)-WKYMVm and increasing unlabeled ligand; mean fluorescence of 5000 cells as % of that without competitor; One site-Fit logIC50
[9] = molecular target: T5, FLAG-Hs_FPR1 C-terminally fused to …; assay: cell-based or functional assay
[10] = molecular target: T6, FLAG-Mm_Fpr1 C-terminally fused to …; assay: cell-based or functional assay
[11] = molecular target: T7, FLAG-Hs_FPR2 C-terminally fused to …; assay: cell-based or functional assay
[12] = molecular target: T8, FLAG-Mm_Fpr2 C-terminally fused to …; assay: cell-based or functional assay
[13] = molecular target: T4, FLAG-tagged mouse Fpr2 (Mm_Fpr2); remark: listed apart in the source
[14] = molecular target: T5, FLAG-Hs_FPR1 C-terminally fused to …; assay: cell-based or functional assay; remark: listed apart in the source
[15] = molecular target: T6, FLAG-Mm_Fpr1 C-terminally fused to …; assay: cell-based or functional assay; remark: listed apart in the source
[16] = molecular target: T7, FLAG-Hs_FPR2 C-terminally fused to …; assay: cell-based or functional assay; remark: listed apart in the source
[17] = molecular target: T8, FLAG-Mm_Fpr2 C-terminally fused to …; assay: cell-based or functional assay; remark: listed apart in the source

Row | Molecule | receptor internalization (flow cytometry): Emax (% of 1 μM WKYMVm) [1] [%] | receptor internalization (flow cytometry): Log EC50 (M) [1] [log M] | receptor internalization (flow cytometry): Emax (% of 1 μM WKYMVm) [2] [%] | receptor internalization (flow cytometry): Log EC50 (M) [2] [log M] | receptor internalization (flow cytometry): Emax (% of 1 μM WKYMVm) [3] [%] | receptor internalization (flow cytometry): Log EC50 (M) [3] [log M] | receptor internalization (flow cytometry): Emax (% of 1 μM WKYMVm) [4] [%] | receptor internalization (flow cytometry): Log EC50 (M) [4] [log M] | ERK1/2 phosphorylation (Western blot): Emax (% of 1 μM WKYMVm) [5] [%] | ERK1/2 phosphorylation (Western blot): Log EC50 (M) [5] [log M] | ERK1/2 phosphorylation (Western blot): Emax (% of 1 μM WKYMVm) [6] [%] | ERK1/2 phosphorylation (Western blot): Log EC50 (M) [6] [log M] | ERK1/2 phosphorylation (Western blot): Emax (% of 1 μM WKYMVm) [7] [%] | ERK1/2 phosphorylation (Western blot): Log EC50 (M) [7] [log M] | Log IC50 [8] [log M] | Max Comp (%) [8] [%] | further results
1 | fMet-Leu-Phe (fMLF) (peptide) | 92.1 | -7.38 | 0.343 | -8.95 | 92.5 | -5.35 | 54.4 | -3.8 | 143 | -8.91 | 40.2 | -4.82 | 72.7 | -5.64 | -6.19 | 88 | 
2 | For-MLFK [fMet-Leu-Phe-Lys (fMLFK)] | 79.3 | -7.79 | 99.9 | -4.48 | 179 | -5.21 | 81.6 | -4.94 | 112 | -8.16 | 74.3 | -5.88 | 140 | -6.07 | -6.23 | 63.3 | BRET of receptor-RLuc8 with Arrestin 3-YFP: Emax (% of 1 μM WKYMVm) [9]: 97.4%; BRET of receptor-RLuc8 with Arrestin 3-YFP: Log EC50 (M) [9]: -7.45 log M; BRET of receptor-RLuc8 with Arrestin 3-YFP: Emax (% of 1 μM WKYMVm) [10]: 95.2%; BRET of receptor-RLuc8 with Arrestin 3-YFP: Log EC50 (M) [10]: -5.14 log M; BRET of receptor-RLuc8 with Arrestin 3-YFP: Emax (% of 1 μM WKYMVm) [11]: 92.7%; BRET of receptor-RLuc8 with Arrestin 3-YFP: Log EC50 (M) [11]: -4.44 log M; BRET of receptor-RLuc8 with Arrestin 3-YFP: Emax (% of 1 μM WKYMVm) [12]: 72.5%; BRET of receptor-RLuc8 with Arrestin 3-YFP: Log EC50 (M) [12]: -4.79 log M; ERK1/2 phosphorylation (Western blot): Emax (% of 1 μM WKYMVm) [13]: 176%; ERK1/2 phosphorylation (Western blot): Log EC50 (M) [13]: -5.91 log M; BRET of receptor-RLuc8 with Venus-mGsi: Emax (% of 1 μM WKYMVm) [14]: 104%; BRET of receptor-RLuc8 with Venus-mGsi: Log EC50 (M) [14]: -7.07 log M; BRET of receptor-RLuc8 with Venus-mGsi: Emax (% of 1 μM WKYMVm) [15]: 62.9%; BRET of receptor-RLuc8 with Venus-mGsi: Log EC50 (M) [15]: -5.02 log M; BRET of receptor-RLuc8 with Venus-mGsi: Emax (% of 1 μM WKYMVm) [16]: 80.7%; BRET of receptor-RLuc8 with Venus-mGsi: Log EC50 (M) [16]: -4.57 log M; BRET of receptor-RLuc8 with Venus-mGsi: Emax (% of 1 μM WKYMVm) [17]: 82.7%; BRET of receptor-RLuc8 with Venus-mGsi: Log EC50 (M) [17]: -4.52 log M
